From patent US20260078416A1, “ORTHOGONAL METABOLIC FRAMEWORK FOR ONE-CARBON UTILIZATION” (Mojia Biotech Pte. Ltd., priority 2021, published 2026)

Tested on: formaldehyde
Assay: Cell-free prototyping of the α-reduction FORCE pathway with E. coli cell extracts
Format: biochemical
Details: 50 mM formaldehyde
Text: A cell-free metabolic engineering approach was used to further prototype the FORCE pathways for product synthesis. […] As shown in FIG. 2 (in the formyl-CoA elongation panel), outside of the direct generation of 2-hydroxycarboxylates (e.g. glycolate) via thioester cleavage of the 2-hydroxyacyl-CoA generated by HACL, other C2 products, (including the aldose or aldehyde elongation pathways) require reduction of this 2-hydroxyacyl-CoA (glycolyl-CoA in the case of formaldehyde and formyl-CoA ligation). Listeria monocytogenes ACR (LmACR) are also able to act upon glycolaldehyde. […] With the inclusion of the previously identified HACL from Rhodospirillales bacterium URHD0017 (RuHACL), glycolate was observed.
Upon further addition of E. coli cell extract expressing diol dehydratase (DDR) from Klebsiella oxytoca, along with coenzyme B12, ethanol was detected (1.90±0.03 mM at one hour: FIG. 5b), likely due to the reduction of acetaldehyde by endogenous oxidoreductases, along with a corresponding decrease in ethylene glycol. […]
Enzyme expression and cell extract preparation was performed as described previously. […] Samples were centrifuged at 20817×g for 15 minutes and the supernatant analyzed by HPLC as described previously.

B1: E. coli FucO: E. coli 1,2-diol oxidoreductase, added as cell extract (protein, UniProt P0A9S1 1-382, looked up)
Lactaldehyde reductase: MANRMILNETAWFGRGAVGALTDEVKRRGYQKALIVTDKTLVQCGVVAKVTDKMDAAGLAWAIYDGVVPNPTITVVKEGLGVFQNSGADYLIAIGGGSPQDTCKAIGIISNNPEFADVRSLEGLSPTNKPSVPILAIPTTAGTAAEVTINYVITDEEKRRKFVCVDPHDIPQVAFIDADMMDGMPPALKAATGVDALTHAIEGYITRGAWALTDALHIKAIEIIAGALRGSVAGDKDAGEEMALGQYVAGMGFSNVGLGLVHGMAHPLGAFYNTPHGVANAILLPHVMRYNADFTGEKYRDIARVMGVKVEGMSLEEARNAAVEAVFALNRDVGIPPHLRDVGVRKEDIPALAQAALDDVCTGGNPREATLEDIVELYHTAW
modifications: added as cell extract
notes: E. coli 1,2-diol oxidoreductase, added as cell extract
In the case of B1, the ethylene glycol synthesis (extract added to LmACR and RuHACL extracts) is reported as 2.73 ± 0.03 mM and the “increase in ethylene glycol” value (vs without the added extract) is reported as 2 fold.
